{
  "source": "paper PMC3159478",
  "about": "(Nucleic Acids Research, 2011)",
  "assay_in_all_cases": "fluorescence anisotropy",
  "key": {"SsoMCM K323A/R440A": {"biological_target": "T1, SsoMCM K323A/R440A (Sulfolobus solfataricus, UniProt Q9UXG1 1-686, K323A;R440A)", "T1 sequence": "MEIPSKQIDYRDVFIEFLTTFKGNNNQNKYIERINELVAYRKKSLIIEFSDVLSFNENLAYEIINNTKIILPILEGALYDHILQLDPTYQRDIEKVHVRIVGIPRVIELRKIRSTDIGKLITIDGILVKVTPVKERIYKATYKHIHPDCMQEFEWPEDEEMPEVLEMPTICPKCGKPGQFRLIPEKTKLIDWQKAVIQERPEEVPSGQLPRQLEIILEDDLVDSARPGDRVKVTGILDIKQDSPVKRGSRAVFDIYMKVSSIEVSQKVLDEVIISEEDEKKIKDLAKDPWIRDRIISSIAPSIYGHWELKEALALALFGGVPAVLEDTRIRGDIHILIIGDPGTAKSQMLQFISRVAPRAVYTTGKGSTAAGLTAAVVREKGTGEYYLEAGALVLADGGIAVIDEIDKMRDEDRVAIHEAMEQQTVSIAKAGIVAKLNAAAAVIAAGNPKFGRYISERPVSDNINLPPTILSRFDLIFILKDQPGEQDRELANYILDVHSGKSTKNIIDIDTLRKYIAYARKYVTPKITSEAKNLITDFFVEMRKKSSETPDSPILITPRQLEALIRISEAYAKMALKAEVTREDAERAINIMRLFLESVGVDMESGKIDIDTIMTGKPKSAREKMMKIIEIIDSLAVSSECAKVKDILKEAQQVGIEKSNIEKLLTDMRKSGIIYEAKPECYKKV"}, "SsoMCM K323A": {"biological_target": "T2, SsoMCM K323A (Sulfolobus solfataricus, UniProt Q9UXG1 1-686, K323A)", "T2 sequence": "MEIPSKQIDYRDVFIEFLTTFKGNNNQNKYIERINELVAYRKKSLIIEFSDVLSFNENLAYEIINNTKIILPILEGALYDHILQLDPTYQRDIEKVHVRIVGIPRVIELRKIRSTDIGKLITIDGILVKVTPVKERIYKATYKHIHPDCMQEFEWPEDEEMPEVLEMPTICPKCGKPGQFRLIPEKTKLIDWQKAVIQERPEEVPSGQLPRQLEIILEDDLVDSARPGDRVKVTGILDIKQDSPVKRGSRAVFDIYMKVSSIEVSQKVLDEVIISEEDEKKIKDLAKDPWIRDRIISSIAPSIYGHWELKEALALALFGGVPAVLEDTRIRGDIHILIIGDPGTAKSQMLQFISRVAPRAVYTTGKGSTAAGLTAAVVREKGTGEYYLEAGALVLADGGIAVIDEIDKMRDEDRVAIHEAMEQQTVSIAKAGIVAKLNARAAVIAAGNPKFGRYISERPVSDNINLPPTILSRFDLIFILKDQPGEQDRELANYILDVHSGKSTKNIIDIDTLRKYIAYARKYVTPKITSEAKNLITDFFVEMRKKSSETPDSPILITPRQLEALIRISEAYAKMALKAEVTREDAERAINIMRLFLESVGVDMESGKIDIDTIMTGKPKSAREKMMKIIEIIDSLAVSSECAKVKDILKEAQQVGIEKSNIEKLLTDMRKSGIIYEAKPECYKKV"}, "SsoMCM WT": {"biological_target": "T3, SsoMCM WT (Sulfolobus solfataricus, UniProt Q9UXG1 1-686)", "T3 sequence": "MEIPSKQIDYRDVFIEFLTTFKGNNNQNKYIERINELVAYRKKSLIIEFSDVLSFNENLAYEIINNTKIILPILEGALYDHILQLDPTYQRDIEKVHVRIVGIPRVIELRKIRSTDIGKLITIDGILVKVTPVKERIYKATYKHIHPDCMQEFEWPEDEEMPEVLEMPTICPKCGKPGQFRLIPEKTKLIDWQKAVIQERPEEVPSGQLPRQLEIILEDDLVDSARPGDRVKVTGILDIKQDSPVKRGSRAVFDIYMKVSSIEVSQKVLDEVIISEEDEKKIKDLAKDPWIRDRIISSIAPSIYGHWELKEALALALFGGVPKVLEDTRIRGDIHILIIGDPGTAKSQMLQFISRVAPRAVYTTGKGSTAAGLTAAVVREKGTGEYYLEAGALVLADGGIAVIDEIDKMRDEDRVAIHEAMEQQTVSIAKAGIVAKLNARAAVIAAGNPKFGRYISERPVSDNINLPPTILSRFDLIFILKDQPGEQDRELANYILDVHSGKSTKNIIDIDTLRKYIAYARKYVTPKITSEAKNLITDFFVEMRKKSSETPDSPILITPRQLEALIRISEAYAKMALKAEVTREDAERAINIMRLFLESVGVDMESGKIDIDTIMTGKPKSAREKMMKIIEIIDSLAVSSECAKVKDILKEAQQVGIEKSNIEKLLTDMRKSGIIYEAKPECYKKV"}, "SsoMCM R440A": {"biological_target": "T4, SsoMCM R440A (Sulfolobus solfataricus, UniProt Q9UXG1 1-686, R440A)", "T4 sequence": "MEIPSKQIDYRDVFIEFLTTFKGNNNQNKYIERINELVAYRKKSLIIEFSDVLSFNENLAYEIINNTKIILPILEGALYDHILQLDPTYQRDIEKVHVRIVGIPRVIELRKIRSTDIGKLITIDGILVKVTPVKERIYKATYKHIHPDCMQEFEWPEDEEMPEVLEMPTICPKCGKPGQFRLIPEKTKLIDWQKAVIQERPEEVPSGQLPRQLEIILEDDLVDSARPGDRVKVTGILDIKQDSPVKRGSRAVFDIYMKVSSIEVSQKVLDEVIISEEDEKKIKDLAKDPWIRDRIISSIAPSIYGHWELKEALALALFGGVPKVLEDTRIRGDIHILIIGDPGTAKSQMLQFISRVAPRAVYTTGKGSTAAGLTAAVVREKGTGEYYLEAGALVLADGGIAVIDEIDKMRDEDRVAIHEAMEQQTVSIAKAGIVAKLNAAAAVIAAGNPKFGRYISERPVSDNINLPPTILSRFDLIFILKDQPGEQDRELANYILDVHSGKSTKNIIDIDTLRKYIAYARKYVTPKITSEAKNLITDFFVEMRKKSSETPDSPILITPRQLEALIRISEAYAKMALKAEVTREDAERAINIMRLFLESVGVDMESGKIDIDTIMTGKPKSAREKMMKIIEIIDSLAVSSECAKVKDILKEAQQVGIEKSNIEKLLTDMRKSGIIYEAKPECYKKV"}},
  "data": [
    {"binder": "fork 5'-tail-50 nt / 3'-tail-30 nt (mixed) DNA 1: CACCTCTCCCTACGCTTCCCACCCACCCCGACCGGCATCTGCTATGGTACGCTGAGCGAGAGTAGC DNA 2: CGATGAGAGCCGATGAGAGCCGATGAGAGCGAGTCGCATGGTATCGTCTAGCCGGTCGGGGTGGGTGGGAAGCGTAGGGAGAGGTG", "values": [
      {"measurement": "Kd", "setting": "SsoMCM K323A/R440A", "result": "90 ± 9", "unit": "nM"},
      {"measurement": "Kd", "setting": "SsoMCM K323A", "result": "93 ± 10", "unit": "nM"},
      {"measurement": "Kd", "setting": "SsoMCM WT", "result": "75 ± 13", "unit": "nM"},
      {"measurement": "Kd", "setting": "SsoMCM R440A", "result": "92 ± 13", "unit": "nM"}
    ]}
  ]
}
